# Assay results: the supplement of paper PMC10724198
# ± gives the standard deviation of the averaged measurements.
# Test system: Saccharomyces cerevisiae
# Assay: protein stability index of tFT-peptide fusion (C-terminal peptide) (PSI (0-1 scale)); higher = more stable (slower turnover)
# Details: genetic background: cdc34-1; temperature: 37 C
# Procedure: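 MPS profiling in S. cerevisiae of the tFT-X12 degron library: putative degron peptides plus stable controls, 12 aa, fused to the C-terminus of a sfGFP-mCherry timer. Cells are FACS-sorted into 8 mCherry/sfGFP bins and deep-sequenced. PSI runs from 0 (unstable) to 1 (stable). Backgrounds are wild type, das1Δ and doa10Δ at 30 °C, and wild type, das1Δ, cdc34-1 and cdc53-1 at 37 °C; 2-3 technical replicates each.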
# 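Further: PSI is a weighted mean of sequencing reads over stability bins, variants kept only with over 10 reads, mCherry proximal and sfGFP distal, peptide attached via GGGS linker.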
row,Sequence,protein stability index
1,VLCFTSAYHRLV,0.662 ± 0.017
2,VLFLLLFVSRVA,0.2684 ± 0.0016
3,VLLCFFLGIVGF,0.36 ± 0.045
4,VLLSFVFCGWVR,0.458 ± 0.014
5,VLLVSVFVATLL,0.124 ± 0.013
6,VLVVASLRFSFF,0.207 ± 0.054
7,VLVVRVLLSDLV,0.178 ± 0.02
8,VLVVWLGICFGY,0.166 ± 0.014
9,VMYRGVRISWFL,0.576 ± 0.036
10,VNILFCLFFLLV,0.449 ± 0.02
11,VPQMLVSVCLSN,0.301 ± 0.014
12,VPQQWFAETGRC,0.72 ± 0.031
13,VRFPVFFIILFL,0.0864 ± 0.024
14,VRGSPNVMWKSQ,0.675 ± 0.028
15,VRLHIAMWLRRC,0.299 ± 0.02
16,VRNKFSYVLRLN,0.488 ± 0.024
17,VRVLPFCWCIVR,0.177 ± 0.03
18,VSIVLHSVPCGG,0.514 ± 0.029
19,VSRVHIRIEGNH,0.694 ± 0.027
20,VSVQVRCCPWVG,0.679 ± 0.037
21,VVATLRCLRCSV,0.474 ± 0.014

row,Sequence,protein stability index
1,VVCFVVCGFYLG,0.235 ± 0.018
2,VVCLLGIFYGFC,0.382 ± 0.023
3,VVLCQVCVLWGW,0.0623 ± 0.011
4,VVLVLLCIGRLL,0.367 ± 0.012
5,VVWIQRTVLSLI,0.565 ± 0.038
6,VWFFGVVLGGLW,0.527 ± 0.071
7,VWRLCFPFALVR,0.0577 ± 0.022
8,VWVISLCIGGVG,0.298 ± 0.0059
9,VYFRMGFMRVCV,0.487 ± 0.05
10,VYFRYWLLVVVF,0.0945 ± 0.029
11,VYRILFWFLCFG,0.489 ± 0.023
12,WDPEVVHRLWLN,0.587 ± 0.037
13,WFCCAQRGVIVG,0.446 ± 0.018
14,WFFRLFFLFFSG,0.34 ± 0.008
15,WFLMVILYTVYG,0.157 ± 0.0068
16,WGCTGGRGRLVC,0.69 ± 0.025
17,WGGIASLVASAA,0.36 ± 0.049
18,WLFASCVFFWSS,0.447 ± 0.045
19,WLSFAIECGMVW,0.1938 ± 0.0014
20,WLTCSLVFNVFW,0.429 ± 0.025
21,WQSFRDKLIKGN,0.646 ± 0.044

row,Sequence,protein stability index
1,WRCECELASACA,0.458 ± 0.015
2,WRGALHPTPVAA,0.285 ± 0.018
3,WSNICFWCGVWS,0.685 ± 0.027
4,WSWVFVVLRFGR,0.485 ± 0.035
5,WVLFRLPYQFFS,0.668 ± 0.048
6,WWDCAVWVRCGG,0.477 ± 0.026
7,YCAMVAVGVVGG,0.468 ± 0.037
8,YCLSCLAKASLM,0.495 ± 0.036
9,YFCVELSVFGFF,0.416 ± 0.018
10,YFFFLFFLLPPF,0.453 ± 0.045
11,YGHLPLLVLFCV,0.459 ± 0.013
12,YHRKAILMCTFS,0.506 ± 0.044
13,YIFLPIALVFFP,0.435 ± 0.021
14,YLFFHMVVLVVV,0.0358 ± 0.0027
15,YLGSLQVPVHLF,0.676 ± 0.024
16,YMPKHKIQKLMQ,0.701 ± 0.02
17,YMVSLSFTLVRS,0.382 ± 0.038
18,YSGRYRTLVRCW,0.291 ± 0.011
19,YVCVVSVLLGLL,0.25 ± 0.017

# Same assay, conditions: genetic background: cdc53-1; temperature: 37 C
row,Sequence,protein stability index
1,VLCFTSAYHRLV,0.739 ± 0.015
2,VLFLLLFVSRVA,0.398 ± 0.017
3,VLLCFFLGIVGF,0.487 ± 0.035
4,VLLSFVFCGWVR,0.4842 ± 0.0018
5,VLLVSVFVATLL,0.256 ± 0.0095
6,VLVVASLRFSFF,0.34 ± 0.036
7,VLVVRVLLSDLV,0.255 ± 0.021
8,VLVVWLGICFGY,0.201 ± 0.046
9,VMYRGVRISWFL,0.582 ± 0.008
10,VNILFCLFFLLV,0.554 ± 0.027
11,VPQMLVSVCLSN,0.376 ± 0.045
12,VPQQWFAETGRC,0.763 ± 0.036
13,VRFPVFFIILFL,0.0743 ± 0.0032
14,VRGSPNVMWKSQ,0.778 ± 0.01
15,VRLHIAMWLRRC,0.271 ± 0.022
16,VRNKFSYVLRLN,0.678 ± 0.014
17,VRVLPFCWCIVR,0.14 ± 0.0084
18,VSIVLHSVPCGG,0.5211 ± 0.0032
19,VSRVHIRIEGNH,0.755 ± 0.028
20,VSVQVRCCPWVG,0.735 ± 0.013
21,VVATLRCLRCSV,0.501 ± 0.052

row,Sequence,protein stability index
1,VVCFVVCGFYLG,0.316 ± 0.021
2,VVCLLGIFYGFC,0.497 ± 0.045
3,VVLCQVCVLWGW,0.202 ± 0.029
4,VVLVLLCIGRLL,0.511 ± 0.026
5,VVWIQRTVLSLI,0.603 ± 0.015
6,VWFFGVVLGGLW,0.554 ± 0.0091
7,VWRLCFPFALVR,0.0537 ± 0.012
8,VWVISLCIGGVG,0.366 ± 0.0041
9,VYFRMGFMRVCV,0.5 ± 0.037
10,VYFRYWLLVVVF,0.106 ± 0.022
11,VYRILFWFLCFG,0.406 ± 0.072
12,WDPEVVHRLWLN,0.772 ± 0.029
13,WFCCAQRGVIVG,0.452 ± 0.028
14,WFFRLFFLFFSG,0.335 ± 0.019
15,WFLMVILYTVYG,0.2 ± 0.0073
16,WGCTGGRGRLVC,0.74 ± 0.013
17,WGGIASLVASAA,0.437 ± 0.1
18,WLFASCVFFWSS,0.502 ± 0.0068
19,WLSFAIECGMVW,0.28 ± 0.058
20,WLTCSLVFNVFW,0.455 ± 0.007
21,WQSFRDKLIKGN,0.716 ± 0.026

row,Sequence,protein stability index
1,WRCECELASACA,0.473 ± 0.027
2,WRGALHPTPVAA,0.282 ± 0.0046
3,WSNICFWCGVWS,0.826 ± 0.011
4,WSWVFVVLRFGR,0.5367 ± 0.0019
5,WVLFRLPYQFFS,0.707 ± 0.021
6,WWDCAVWVRCGG,0.471 ± 0.0077
7,YCAMVAVGVVGG,0.506 ± 0.025
8,YCLSCLAKASLM,0.606 ± 0.0019
9,YFCVELSVFGFF,0.546 ± 0.077
10,YFFFLFFLLPPF,0.477 ± 0.025
11,YGHLPLLVLFCV,0.509 ± 0.037
12,YHRKAILMCTFS,0.55 ± 0.011
13,YIFLPIALVFFP,0.536 ± 0.014
14,YLFFHMVVLVVV,0.0745 ± 0.0059
15,YLGSLQVPVHLF,0.725 ± 0.062
16,YMPKHKIQKLMQ,0.728 ± 0.032
17,YMVSLSFTLVRS,0.454 ± 0.054
18,YSGRYRTLVRCW,0.366 ± 0.039
19,YVCVVSVLLGLL,0.319 ± 0.029

# Same assay, conditions: genetic background: das1 deletion; temperature: 30 C
row,Sequence,protein stability index
1,VLCFTSAYHRLV,0.631 ± 0.0098
2,VLFLLLFVSRVA,0.259 ± 0.035
3,VLLCFFLGIVGF,0.322 ± 0.024
4,VLLSFVFCGWVR,0.345 ± 0.027
5,VLLVSVFVATLL,0.143 ± 0.033
6,VLVVASLRFSFF,0.197 ± 0.029
7,VLVVRVLLSDLV,0.18 ± 0.028
